From patent publication US6534281
One block for each substance: values may come before it.

Legend:
human C-peptide (human) [1] = assay: sandwich immunoassay, one-step; 9103 on particles, labeled antibody 9101
human C-peptide (human) [2] = assay: sandwich immunoassay, two-step; 9103 on particles, labeled antibody 9101
human C-peptide (human) [3] = assay: sandwich immunoassay, one-step; 9103 on particles, labeled antibody PEP-001
human C-peptide (human) [4] = assay: sandwich immunoassay, two-step; 9103 on particles, labeled antibody PEP-001
human proinsulin (human) [5] = target: human proinsulin (human) (UniProt P01308); assay: sandwich immunoassay, one-step, against C-peptide calibration; proinsulin 50 ng/ml; 9103 on particles, labeled antibody 9101
Chain of UniProt P01308 (P01308 25-110): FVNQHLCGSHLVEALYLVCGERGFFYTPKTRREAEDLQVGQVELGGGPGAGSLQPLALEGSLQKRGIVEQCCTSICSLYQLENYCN

human proinsulin (human) [6] = target: human proinsulin (human) (UniProt P01308); assay: sandwich immunoassay, two-step, against C-peptide calibration; proinsulin 50 ng/ml; 9103 on particles, labeled antibody 9101
human proinsulin (human) [7] = target: human proinsulin (human) (UniProt P01308); assay: sandwich immunoassay, one-step, against C-peptide calibration; proinsulin 200 ng/ml; 9103 on particles, labeled antibody 9101
human proinsulin (human) [8] = target: human proinsulin (human) (UniProt P01308); assay: sandwich immunoassay, one-step, against C-peptide calibration; proinsulin 400 ng/ml; 9103 on particles, labeled antibody 9101
human proinsulin (human) [9] = target: human proinsulin (human) (UniProt P01308); assay: sandwich immunoassay, two-step, against C-peptide calibration; proinsulin 200 ng/ml; 9103 on particles, labeled antibody 9101
human proinsulin (human) [10] = target: human proinsulin (human) (UniProt P01308); assay: sandwich immunoassay, two-step, against C-peptide calibration; proinsulin 400 ng/ml; 9103 on particles, labeled antibody 9101
human proinsulin (human) [11] = target: human proinsulin (human) (UniProt P01308); assay: sandwich immunoassay, one-step, against C-peptide calibration; proinsulin 50 ng/ml; 9103 on particles, labeled antibody PEP-001
human proinsulin (human) [12] = target: human proinsulin (human) (UniProt P01308); assay: sandwich immunoassay, two-step, against C-peptide calibration; proinsulin 50 ng/ml; 9103 on particles, labeled antibody PEP-001
human proinsulin (human) [13] = target: human proinsulin (human) (UniProt P01308); assay: sandwich immunoassay, one-step, against C-peptide calibration; proinsulin 200 ng/ml; 9103 on particles, labeled antibody PEP-001
human proinsulin (human) [14] = target: human proinsulin (human) (UniProt P01308); assay: sandwich immunoassay, one-step, against C-peptide calibration; proinsulin 400 ng/ml; 9103 on particles, labeled antibody PEP-001
human proinsulin (human) [15] = target: human proinsulin (human) (UniProt P01308); assay: sandwich immunoassay, two-step, against C-peptide calibration; proinsulin 200 ng/ml; 9103 on particles, labeled antibody PEP-001
human proinsulin (human) [16] = target: human proinsulin (human) (UniProt P01308); assay: sandwich immunoassay, two-step, against C-peptide calibration; proinsulin 400 ng/ml; 9103 on particles, labeled antibody PEP-001
[17] = target: modified C-peptide (human C-peptide having Arg-Arg bound to its N-terminal and Lys-Arg bound to its C-terminal) (human); assay: sandwich immunoassay, one-step, against C-peptide calibration; modified C-peptide 5 ng/ml; 9103 on particles, labeled antibody 9101
Chain of modified C-peptide (human C-peptide having Arg-Arg bound to its N-terminal and Lys-Arg bound to its C-terminal) (human) (peptide, as listed by the source): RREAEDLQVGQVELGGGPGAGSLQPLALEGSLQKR

[18] = target: modified C-peptide (human C-peptide having Arg-Arg bound to its N-terminal and Lys-Arg bound to its C-terminal) (human); assay: sandwich immunoassay, two-step, against C-peptide calibration; modified C-peptide 5 ng/ml; 9103 on particles, labeled antibody 9101
[19] = target: modified C-peptide (human C-peptide having Arg-Arg bound to its N-terminal and Lys-Arg bound to its C-terminal) (human); assay: sandwich immunoassay, one-step, against C-peptide calibration; modified C-peptide 5 ng/ml; 9103 on particles, labeled antibody PEP-001
[20] = target: modified C-peptide (human C-peptide having Arg-Arg bound to its N-terminal and Lys-Arg bound to its C-terminal) (human); assay: sandwich immunoassay, two-step, against C-peptide calibration; modified C-peptide 5 ng/ml; 9103 on particles, labeled antibody PEP-001
human C-peptide (human) [21] = assay: sandwich immunoassay, one-step; PEP-001 on particles, labeled antibody 9103
human C-peptide (human) [22] = assay: sandwich immunoassay, two-step; PEP-001 on particles, labeled antibody 9103
human C-peptide (human) [23] = assay: sandwich immunoassay, one-step; PEP-001 on particles, labeled antibody CPT-3F-11
human C-peptide (human) [24] = assay: sandwich immunoassay, two-step; PEP-001 on particles, labeled antibody CPT-3F-11
human proinsulin (human) [25] = target: human proinsulin (human) (UniProt P01308); assay: sandwich immunoassay, one-step, against C-peptide calibration; proinsulin 50 ng/ml; PEP-001 on particles, labeled antibody 9103
human proinsulin (human) [26] = target: human proinsulin (human) (UniProt P01308); assay: sandwich immunoassay, two-step, against C-peptide calibration; proinsulin 50 ng/ml; PEP-001 on particles, labeled antibody 9103
human proinsulin (human) [27] = target: human proinsulin (human) (UniProt P01308); assay: sandwich immunoassay, one-step, against C-peptide calibration; proinsulin 200 ng/ml; PEP-001 on particles, labeled antibody 9103
human proinsulin (human) [28] = target: human proinsulin (human) (UniProt P01308); assay: sandwich immunoassay, one-step, against C-peptide calibration; proinsulin 400 ng/ml; PEP-001 on particles, labeled antibody 9103
human proinsulin (human) [29] = target: human proinsulin (human) (UniProt P01308); assay: sandwich immunoassay, two-step, against C-peptide calibration; proinsulin 200 ng/ml; PEP-001 on particles, labeled antibody 9103
human proinsulin (human) [30] = target: human proinsulin (human) (UniProt P01308); assay: sandwich immunoassay, two-step, against C-peptide calibration; proinsulin 400 ng/ml; PEP-001 on particles, labeled antibody 9103
human proinsulin (human) [31] = target: human proinsulin (human) (UniProt P01308); assay: sandwich immunoassay, one-step, against C-peptide calibration; proinsulin 50 ng/ml; PEP-001 on particles, labeled antibody CPT-3-F11
human proinsulin (human) [32] = target: human proinsulin (human) (UniProt P01308); assay: sandwich immunoassay, two-step, against C-peptide calibration; proinsulin 50 ng/ml; PEP-001 on particles, labeled antibody CPT-3-F11
human proinsulin (human) [33] = target: human proinsulin (human) (UniProt P01308); assay: sandwich immunoassay, one-step, against C-peptide calibration; proinsulin 200 ng/ml; PEP-001 on particles, labeled antibody CPT-3-F11
human proinsulin (human) [34] = target: human proinsulin (human) (UniProt P01308); assay: sandwich immunoassay, one-step, against C-peptide calibration; proinsulin 400 ng/ml; PEP-001 on particles, labeled antibody CPT-3-F11
human proinsulin (human) [35] = target: human proinsulin (human) (UniProt P01308); assay: sandwich immunoassay, two-step, against C-peptide calibration; proinsulin 200 ng/ml; PEP-001 on particles, labeled antibody CPT-3-F11
human proinsulin (human) [36] = target: human proinsulin (human) (UniProt P01308); assay: sandwich immunoassay, two-step, against C-peptide calibration; proinsulin 400 ng/ml; PEP-001 on particles, labeled antibody CPT-3-F11
[37] = target: modified C-peptide (human C-peptide having Arg-Arg bound to its N-terminal and Lys-Arg bound to its C-terminal) (human); assay: sandwich immunoassay, one-step, against C-peptide calibration; modified C-peptide 5 ng/ml; PEP-001 on particles, labeled antibody 9103
[38] = target: modified C-peptide (human C-peptide having Arg-Arg bound to its N-terminal and Lys-Arg bound to its C-terminal) (human); assay: sandwich immunoassay, two-step, against C-peptide calibration; modified C-peptide 5 ng/ml; PEP-001 on particles, labeled antibody 9103
[39] = target: modified C-peptide (human C-peptide having Arg-Arg bound to its N-terminal and Lys-Arg bound to its C-terminal) (human); assay: sandwich immunoassay, one-step, against C-peptide calibration; modified C-peptide 5 ng/ml; PEP-001 on particles, labeled antibody CPT-3F-11
[40] = target: modified C-peptide (human C-peptide having Arg-Arg bound to its N-terminal and Lys-Arg bound to its C-terminal) (human); assay: sandwich immunoassay, two-step, against C-peptide calibration; modified C-peptide 5 ng/ml; PEP-001 on particles, labeled antibody CPT-3F-11

Chain of human C-peptide (human) (peptide, as listed by the source): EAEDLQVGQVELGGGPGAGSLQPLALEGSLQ

- 2S/N value (human C-peptide (human) [1]): 0.117 ng/mL
- 2S/N value (human C-peptide (human) [2]): 0.167 ng/mL
- 2S/N value (human C-peptide (human) [3]): 0.009 ng/mL
- 2S/N value (human C-peptide (human) [4]): 0.018 ng/mL
- Cross-reactivity (%) to Human Proinsulin (human proinsulin (human) [5]): 3.2%
- Cross-reactivity (%) to Human Proinsulin (human proinsulin (human) [6]): 2.3%
- Cross-reactivity (%) to Human Proinsulin (human proinsulin (human) [7]): 5.8%
- Cross-reactivity (%) to Human Proinsulin (human proinsulin (human) [8]): 6.9%
- Cross-reactivity (%) to Human Proinsulin (human proinsulin (human) [9]): 4.4%
- Cross-reactivity (%) to Human Proinsulin (human proinsulin (human) [10]): 6.8%
- Cross-reactivity (%) to Human Proinsulin (human proinsulin (human) [11]): 58%
- Cross-reactivity (%) to Human Proinsulin (human proinsulin (human) [12]): 65.2%
- Cross-reactivity (%) to Human Proinsulin (human proinsulin (human) [13]): > 30%
- Cross-reactivity (%) to Human Proinsulin (human proinsulin (human) [14]): > 15%
- Cross-reactivity (%) to Human Proinsulin (human proinsulin (human) [15]): > 30%
- Cross-reactivity (%) to Human Proinsulin (human proinsulin (human) [16]): > 15%
- Cross-reactivity (%) to Modified C-peptide [17]: < 0.5%
- Cross-reactivity (%) to Modified C-peptide [18]: < 0.5%
- Cross-reactivity (%) to Modified C-peptide [19]: 58.2%
- Cross-reactivity (%) to Modified C-peptide [20]: 38.6%
Substance: anti-human C-peptide monoclonal antibody 9103 (Medix Biochemica)

- 2S/N value (human C-peptide (human) [21]): 0.781 ng/mL
- 2S/N value (human C-peptide (human) [22]): 0.591 ng/mL
- 2S/N value (human C-peptide (human) [23]): 0.191 ng/mL
- 2S/N value (human C-peptide (human) [24]): 0.271 ng/mL
- Cross-reactivity (%) to Human Proinsulin (human proinsulin (human) [25]): > 120%
- Cross-reactivity (%) to Human Proinsulin (human proinsulin (human) [26]): > 120%
- Cross-reactivity (%) to Human Proinsulin (human proinsulin (human) [27]): > 30%
- Cross-reactivity (%) to Human Proinsulin (human proinsulin (human) [28]): > 15%
- Cross-reactivity (%) to Human Proinsulin (human proinsulin (human) [29]): > 30%
- Cross-reactivity (%) to Human Proinsulin (human proinsulin (human) [30]): > 15%
- Cross-reactivity (%) to Human Proinsulin (human proinsulin (human) [31]): > 120%
- Cross-reactivity (%) to Human Proinsulin (human proinsulin (human) [32]): > 120%
- Cross-reactivity (%) to Human Proinsulin (human proinsulin (human) [33]): > 30%
- Cross-reactivity (%) to Human Proinsulin (human proinsulin (human) [34]): > 15%
- Cross-reactivity (%) to Human Proinsulin (human proinsulin (human) [35]): > 30%
- Cross-reactivity (%) to Human Proinsulin (human proinsulin (human) [36]): > 15%
- Cross-reactivity (%) to Modified C-peptide [37]: 35%
- Cross-reactivity (%) to Modified C-peptide [38]: 38.3%
- Cross-reactivity (%) to Modified C-peptide [39]: 98.5%
- Cross-reactivity (%) to Modified C-peptide [40]: 80%
Substance: anti-human C-peptide monoclonal antibody PEP-001 (Dako)
